For test [1], the target named is T1, His-tagged human EGFR (expressed/purified in-house) (human, UniProt P00533 25-645, limits assumed).
T1 construct: Made in-house; also called ErbB1; HER1; not shown: His tag
Kind of test: BLI (Octet384), antibody captured on AHC tips, His-tagged EGFR 0-100 nM in solution, global 1:1 fit.

Test [2] deals with human HER3 (purchased from Acro Bio) (human, UniProt P21860 20-643). Kind of test: BLI (Octet384), antibody captured on AHC tips, HER3 (Acro Bio) 0-100 nM in solution, global 1:1 fit.

B1: SI-1X4 (bispecific antibody)
heavy: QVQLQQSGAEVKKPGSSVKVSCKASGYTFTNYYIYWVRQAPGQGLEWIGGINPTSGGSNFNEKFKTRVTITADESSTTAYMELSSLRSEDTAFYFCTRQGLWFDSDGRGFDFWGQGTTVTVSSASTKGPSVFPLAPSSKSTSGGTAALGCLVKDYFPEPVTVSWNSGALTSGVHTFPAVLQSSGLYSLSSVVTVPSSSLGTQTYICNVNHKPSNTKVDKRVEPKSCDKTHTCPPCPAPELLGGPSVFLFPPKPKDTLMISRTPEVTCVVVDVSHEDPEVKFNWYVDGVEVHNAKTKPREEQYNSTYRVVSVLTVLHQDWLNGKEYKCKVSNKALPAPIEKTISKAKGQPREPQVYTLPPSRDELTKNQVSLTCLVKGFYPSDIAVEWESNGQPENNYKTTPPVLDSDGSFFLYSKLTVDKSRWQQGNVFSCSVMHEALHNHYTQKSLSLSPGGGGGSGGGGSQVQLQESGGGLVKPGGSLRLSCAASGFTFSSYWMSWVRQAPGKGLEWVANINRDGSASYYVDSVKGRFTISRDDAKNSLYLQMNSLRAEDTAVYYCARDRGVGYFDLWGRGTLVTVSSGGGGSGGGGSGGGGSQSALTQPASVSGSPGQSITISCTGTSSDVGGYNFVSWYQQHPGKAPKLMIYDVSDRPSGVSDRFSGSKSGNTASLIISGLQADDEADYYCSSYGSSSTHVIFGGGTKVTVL
light: DIQMTQSPSSLSASVGDRVTITCRSSQNIVHSNGNTYLDWYQQTPGKAPKLLIYKVSNRFSGVPSRFSGSGSGTDFTFTISSLQPEDIATYYCFQYSHVPWTFGQGTKLQITRTVAAPSVFIFPPSDEQLKSGTASVVCLLNNFYPREAKVQWKVDNALQSGNSQESVTEQDSKDSTYSLSSTLTLSKADYEKHKVYACEVTHQGLSSPVTKSFNRGEC
notes: Tetravalent IgG-scFv: anti-EGFR Fab with nimotuzumab variable regions, anti-HER3 scFv at the C-terminus of the heavy chain; also called EGFRxHER3 bispecific antibody; nimotuzumab-based bispecific antibody
One may read the Kd as a measure of binding affinity in units of concentration. The koff is the first-order rate constant of dissociation. A high value points to a short-lived complex. One may read the kon as a measure of how fast the partners come together. High values mean fast association, low ones slow association. For the molecule B1, in test [1], the Kd was 23.8 nM, the Response came out at 0.171, the koff is 0.00171 s⁻¹ and the kon stood at 71600 M⁻¹ s⁻¹. In addition, in test [2], the Kd amounted to 156 nM, the Response worked out at 0.264, the koff worked out at 0.0281 s⁻¹ and the kon came out at 180000 M⁻¹ s⁻¹.

B2: SI-1X26 (bispecific antibody)
heavy: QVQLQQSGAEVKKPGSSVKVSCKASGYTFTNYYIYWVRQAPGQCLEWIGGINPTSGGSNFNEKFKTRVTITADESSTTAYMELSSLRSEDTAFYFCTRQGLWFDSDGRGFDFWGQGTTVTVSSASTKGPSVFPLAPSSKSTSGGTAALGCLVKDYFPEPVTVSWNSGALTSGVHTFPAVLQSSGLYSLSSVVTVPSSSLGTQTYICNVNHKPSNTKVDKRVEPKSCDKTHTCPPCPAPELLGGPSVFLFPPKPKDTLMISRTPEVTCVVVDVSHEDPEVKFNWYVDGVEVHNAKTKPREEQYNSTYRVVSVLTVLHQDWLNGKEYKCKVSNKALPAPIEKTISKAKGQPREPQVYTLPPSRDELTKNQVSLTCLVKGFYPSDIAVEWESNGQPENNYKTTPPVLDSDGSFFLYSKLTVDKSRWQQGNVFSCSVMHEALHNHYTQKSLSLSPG
light: DIQMTQSPSSLSASVGDRVTITCRSSQNIVHSNGNTYLDWYQQTPGKAPKLLIYKVSNRFSGVPSRFSGSGSGTDFTFTISSLQPEDIATYYCFQYSHVPWTFGCGTKLQITRTVAAPSVFIFPPSDEQLKSGTASVVCLLNNFYPREAKVQWKVDNALQSGNSQESVTEQDSKDSTYSLSSTLTLSKADYEKHKVYACEVTHQGLSSPVTKSFNRGECGGGGSGGGGSGGGGSQVQLQESGGGLVKPGGSLSLSCAASGFTFSSYWMSWVRQAPGKGLEWVANINRDGSASYYVDSVKGRFTISRDDAKNSLYLQMNSLRAEDTAVYYCARDRGVGYFDLWGRGTLVTVSSGGGGSGGGGSGGGGSQSALTQPASVSGSPGQSITISCTGTSSDVGGYNFVSWYQQHPGKAPKLMIYDVSDRPSGVSDRFSGSKSGNTASLIISGLQADDEADYYCSSYGSSSTHVIFGGGTKVTVL
notes: scFv on the C-terminus of the light chain; also called EGFRxHER3 bispecific antibody; nimotuzumab-based bispecific antibody
In test [1], B2 had a dissociation constant Kd of 11.4 nM, a Response of 0.194, a koff of 0.000627 s⁻¹ and a kon of 55100 M⁻¹ s⁻¹. Moreover, in test [2], the affinity, expressed as Kd, was 151 nM; the Response is 0.294; the koff was 0.0308 s⁻¹; the on-rate (kon) was 204000 M⁻¹ s⁻¹.

For the origin of these results see patent publication US20240309099A1 (SYSTIMMUNE, published 2024).
